Assay results: the Immune Epitope Database (IEDB)
pIC50, pKd: −log10 of the molar value.

How the values were obtained:
HLA-A*02:01 = assay: IEDB peptide-MHC binding, purified MHC/competitive/fluorescence; filed as Kd, often an IC50 or EC50 that approximates it; ≥ and ≤ were set here for values at or beyond the usual limits of such assays; settings: source organism: Fowlpox virus
HLA-A*02:03 = assay: as above; settings: source organism: Fowlpox virus
HLA-A*02:11 = assay: as above; settings: source organism: Fowlpox virus
HLA-A*02:12 = assay: as above; settings: source organism: Fowlpox virus
HLA-A*02:16 = assay: as above; settings: source organism: Fowlpox virus
HLA-A*02:19 = assay: as above; settings: source organism: Fowlpox virus
HLA-A*03:01 = assay: as above; settings: source organism: Fowlpox virus
HLA-A*23:01 = assay: as above; settings: source organism: Fowlpox virus
HLA-A*24:03 = assay: as above; settings: source organism: Fowlpox virus
HLA-A*26:01 = assay: as above; settings: source organism: Fowlpox virus
HLA-A*29:02 = assay: as above; settings: source organism: Fowlpox virus
HLA-A*68:02 = assay: as above; settings: source organism: Fowlpox virus
HLA-A*69:01 = assay: as above; settings: source organism: Fowlpox virus
HLA-B*15:01 [1] = assay: as above
HLA-B*15:17 = assay: as above; settings: source organism: Fowlpox virus
HLA-B*18:01 = assay: as above; settings: source organism: Fowlpox virus
HLA-B*27:03 = assay: as above; settings: source organism: Fowlpox virus
HLA-B*39:01 = assay: as above; settings: source organism: Fowlpox virus
HLA-B*46:01 = assay: as above
HLA-B*57:01 = assay: as above; settings: source organism: Fowlpox virus
HLA-C*06:02 = assay: IEDB peptide-MHC binding, purified MHC/direct/fluorescence; filed as Kd, often an IC50 or EC50 that approximates it; ≥ and ≤ were set here for values at or beyond the usual limits of such assays; settings: source organism: Influenza A virus (A/81/HO)
HLA-B*35:01 = assay: IEDB peptide-MHC binding, purified MHC/competitive/fluorescence; filed as Kd, often an IC50 or EC50 that approximates it; ≥ and ≤ were set here for values at or beyond the usual limits of such assays; settings: source organism: Influenza A virus (A/81/HO)
HLA-A*24:02 = assay: IEDB peptide-MHC binding, purified MHC/competitive/fluorescence; ≥ and ≤ were set here for values at or beyond the usual limits of such assays; settings: source organism: Vaccinia virus
HLA-B*08:01 = assay: as above; settings: source organism: Vaccinia virus
HLA-B*15:01 [2] = assay: as above; settings: source organism: Vaccinia virus
[3] = source organism: Influenza A virus (A/81/HO)

Sequence: VIMWYNYLF
- pKd (HLA-A*02:01): ≤ 4.70
- pKd (HLA-A*02:03): ≤ 4.70
- pKd (HLA-A*02:11): 8.33
- pKd (HLA-A*02:12): ≤ 4.70
- pKd (HLA-A*02:16): ≤ 4.70
- pKd (HLA-A*02:19): ≤ 4.70
- pKd (HLA-A*03:01): ≤ 4.70
- pKd (HLA-A*23:01): ≤ 4.70
- pKd (HLA-A*24:03): ≤ 4.70
- pKd (HLA-A*26:01): ≤ 4.70
- pKd (HLA-A*29:02): ≤ 4.70
- pKd (HLA-A*68:02): ≤ 4.70
- pKd (HLA-A*69:01): ≤ 4.70
- pKd (HLA-B*15:01 [1]; source organism: Fowlpox virus): ≤ 4.70
- pKd (HLA-B*15:17): ≤ 4.70
- pKd (HLA-B*18:01): ≤ 4.70
- pKd (HLA-B*27:03): ≤ 4.70
- pKd (HLA-B*39:01): ≤ 4.70
- pKd (HLA-B*46:01; source organism: Fowlpox virus): ≤ 4.70
- pKd (HLA-B*57:01): ≤ 4.70

Sequence: WMACNSAAF
- pKd (HLA-C*06:02): ≤ 4.70
- pKd (HLA-B*15:01 [1]; [3]): 7.84
- pKd (HLA-B*35:01): 9.70
- pKd (HLA-B*46:01; [3]): 6.96

Sequence: YSKDSRNKL
- pIC50 (HLA-A*24:02): 4.71
- pIC50 (HLA-B*08:01): ≤ 4.11
- pIC50 (HLA-B*15:01 [2]): ≤ 3.59
